{"source": "the DeepSol protein solubility set"}
{"test": "soluble on expression in E. coli; label from the status in PepcDB or PDB records"}
{"sequence": "MGSDKIHHHHHHMKKSVMLLVCLLGLSACSTKFSYRFLDWAIGWEQEDYVTLDKTQQKAFDTLVEKMVFWHQSKELAHYVVQLKEVENLIKTNELTPLLWAEHVDIAKRHWFRVFEFAMPELLPIIMSLTDSQVKQILTKLREDEQALVKEFAGKSPEQLQKDADKRLQKQFEDWLGSVSAEQKSLIHQYNQQRLSTLDMWLEYRHEWLRQFEVALGQRADKVLLTERLTLLMTQPDELKSEQHKAFLRQNTEAFGTLLLAMNGSLSAKQSKHFYKKLGKLIQDLTELNQEALEKEFKSMKALST", "soluble on expression in E. coli": "not soluble"}
{"sequence": "MLTTTTNDILDQLRPLTVTKRGGAQTKFHPYKIDFVLRRLLATDDEVRVVKQALVAQYQDADNIDTRELRSTMMQILNAQGLTAAAKAYQDYFEAEQQRFAAATN", "soluble on expression in E. coli": "not soluble"}
{"sequence": "MGSDKIHHHHHHMATSTTSTPHDAVFKQFLCHPDTARDFLEIHLPSTLRQICNLNTLRLESGSFIEEDLRPHYSDILWSLETSEGEGYIYVVIEHQSTPDAHMAFRLMRYAMAAMQRHLEAGHKTLPLVVPMLFYHGNRSPYPFSLCWLDEFADPVMARKLYATAFPLVDITVVPDDEIMRHRRVALLELIQKHIRQRDLMGLVEQLVALLVKGYANDTQLQSLFNYMMHTGDAARFNTFIRQVAMRIPQHKEKIMTIADRLRQEGHRNGLQQGKQEGQRLAALRIARSMLNDGFDRDTVLRVTGLAPADLASENH", "soluble on expression in E. coli": "not soluble"}
{"sequence": "MVIEESGNESEASVAPKRRRAPKGDMRRKALLDAATVVFARDGYSSASMREVALLAGITTVGLLHHFPNKEALLSALLERRDQRVTSRFQDMVTELTLDGFLKFLKLSMSFSVENADECQAALLMNTESLSPSHPACSWHRERFQMTHEHARGHLNALIEAGEVRADINVKALAQEIFSVMDGLQIQWLRSPDDVDVMAVFEVYVQRLGRDIKAHP", "soluble on expression in E. coli": "not soluble"}
{"sequence": "MASNMDREMILADFQACTGIENIDEAITLLEQNNWDLVAAINGVIPQENGILQSEYGGETIPGPAFNPASHPASAPTSSSSSAFRPVMPSRQIVERQPRMLDFRVEYRDRNVDVVLEDTCTVGEIKQILENELQIPVSKMLLKGWKTGDVEDSTVLKSLHLPKNNSLYVLTPDLPPPSSSSHAGALQESLNQNFMLIITHREVQREYNLNFSGSSTIQEVKRNVYDLTSIPVRHQLWEGWPTSATDDSMCLAESGLSYPCHRLTVGRRSSPAQTREQSEEQITDVHMVSDSDGDDFEDATEFGVDDGEVFGMASSALRKSPMMPENAENEGDALLQFTAEFSSRYGDCHPVFFIGSLEAAFQEAFYVKARDRKLLAIYLHHDESVLTNVFCSQMLCAESIVSYLSQNFITWAWDLTKDSNRARFLTMCNRHFGSVVAQTIRTQKTDQFPLFLIIMGKRSSNEVLNVIQGNTTVDELMMRLMAAMEIFTAQQQEDIKDEDEREARENVKREQDEAYRLSLEADRAKREAHEREMAEQFRLEQIRKEQEEEREAIRLSLEQALPPEPKEENAEPVSKLRIRTPSGEFLERRFLASNKLQIVFDFVASKGFPWDEYKLLSTFPRRDVTQLDPNKSLLEVKLFPQETLFLEAKE", "soluble on expression in E. coli": "soluble"}
{"sequence": "MLAAGEGKRMGACKPLLPLGASTVLAHVAKTLLPAINGPLVVVTGHHGDAVTAEALRLSLETAENTTPQDGMFSSVRTGIAHIVGRVDGVLVLPADIPFVRTATCALVVEAFRRHRAAVTYPTLCGERGHPPLLDADTMRAVLASSGDGGLRGVLLALERQGGTTHDVAVADEGIVTDMDTPADHAQLVARHPLRHIPTPREREALLEMAGTPARVRAHCRMVARAALAMAAHLEATRRGFISPFARQSAPHGISTSGAHAEPRSVPASTTTHAVHAEGNTTLPHTATAHVACPPPDVTTGPMPTCQPGHMPDHMPGTARDAAQQAPAATASPQRLDRPLIHAAATLHDICKGTQRHEAAGGALLTRHGFPEVGSIIAAHRDIAPQAGPEIDEAALVMLADKYVRGVSLIPVEERFDERLREWAHRPDVACDIAARKARVLMVRDLFESETATELFPLLQRKVRRGTFLEHHHHHH", "soluble on expression in E. coli": "not soluble"}
{"sequence": "MAHHHHHHVDDDDKMVTDQRWLIDKSALVRLTDSPDMEIWSNRIERGLVHITGVTRLEVGFSAECGEIARREFREPPLSAMPVEYLTPRIEDRALEVQTLLADRGHHRGPSIPDLLIAATAELSGLTVLHVDKDFDAIAALTGQKTERLTHRPPSA", "soluble on expression in E. coli": "soluble"}
{"sequence": "MPRKPKRPCSFPGCPELTDGRYCDMHQRQMDAYYNKYERDPQTRKRYDRRWKRIRDRYISEHPLCEECQKYGRLTPAEEVHHIIPLSKGGTNADSNLMSLCKQCHSSITAREGERWARR", "soluble on expression in E. coli": "not soluble"}
{"sequence": "MGSDKIHHHHHHMEMNDTRRRLIELIAEHHASHPGKKLGIEELSRRAGISRQSFNRYYKDLTDYAAGRKLIGDLVDDTTNAQTKQLINQQQEVMRDLQEQVEHSEIENAKKLKKAMDSYVTSLMVNDLTAHAANSLRITLEKQTVHNLQLKQELTNMEVSLAKAQANAATLAISPTPREGKGEKVKLDVDLSKAVAAFSATKSEDDFEDKKEIALKSLVQSICKLALESKCSIVLFAERYVSRFSSFYDNFSCPDDGLHIIARLPVFYRSELRTFIDKLPPTQNISLYIPYLESASEKKAQRSFYFNSIPKCELDSADEADVIPMTLGLDRIIQFRVKQGD", "soluble on expression in E. coli": "not soluble"}
{"sequence": "NKNWFVSFKGTFTYAHNEITQYDESPKYPWQSKIGVSANKNAIYIADGLFIDAADIANHQQQLGAAVIPGDIKYINISRDWYGYDDNLTDTDDWVWAKHPGVPEIVYGFGPSIKWKNLDFSFFFQGIARTSFMVKDFHPFGDSMLRNVLSWVADERWSPDNQNTNATYPRLSRKTNNNNNKLSSYWERNGAFLKLKNAEIGYTYKNMRLYISGSNLMTFAPFDLWDPEQGGGSGLSYPTQRVFNIGFQMTINNK", "soluble on expression in E. coli": "not soluble"}
{"sequence": "MTRHALAYVAGAYEHPLRHAPDKSVAQLHAESARGALDDAGLSFADVDGYFCAGDAGLGPAYMVDYLNLTPRHVDGTEIGGGSYLAQIGHAAHAIAAGKCSVALITLAGRPRSEGQATGTEPRIPGPDRPSAPWDSAYRWTIGTIYGNFARRHMHEYGTTSEQLAWVKVAASHHAQHNPNALLRKVYTVDDVLGSPMVADPLHRLDCCVITDGGGALVIVAPEVARSLNRPRIKVV", "soluble on expression in E. coli": "not soluble"}
{"sequence": "MAVSPDDPLILVGRVAGGFGVRGEVRITTYTEDPLSIAGFKALKRQDGSPALTIASARKTKDGVVCRCPGVETKEAADALRGLRLYVPRSALPEPDDDEFYLTDLVGLTVRHIQTDQLLGRVKSVQNFGAGDILEITPDLGGPTWYLPFTRAAVPEVRVSEGLILADPPALVGDHEGPEEKGLDENEELGDRDAAALEHHHHHH", "soluble on expression in E. coli": "not soluble"}
{"sequence": "MGSDKIHHHHHHADKFVAKCPNEIFIGAILEANSINQDTYKFLKISMNPINMGYTIPIKSQTITPSYNNMMKAIHEALKTNDVLKSNYSFSFVIKKIKSYQELAVNWGQNINLQQLLGITPDYKPQKNIILIDINQSFFSIIMDMPESLSTDPQVLQQLDKLAFINSIQFGRKVILVIESNIDYDKLQEAIDNLLKSKEVSQKELAILANSNIRLMTIGNKEIKDINPDNPFTSILTYLSSTVTPDDFGGPISFSASNIKDNSVFVNYFNVQ", "soluble on expression in E. coli": "not soluble"}
{"sequence": "MSNAYEEYMRQMVIPMRQELVRSGFEELTTEEAVTEFMENTSGTTLVVVNSVCGCAAGLARPSAGQAVVRAEKQPDHLVTVFAGQDKDATAKMREYFGEIPPSSPSMALLKGKEVVHFIHRHEIEGATMDEIITNLEQAFEKNC", "soluble on expression in E. coli": "soluble"}
{"sequence": "MDDVLDRIMGSAPSQSGSSLNRTPKRDHRSNPDMHEPSSKRSAPMFTTPKSATPIGRDSFATLDTLNVQMNMFTMDIKDMPHKLQRLQVDVIICSSNGKQINVNLGVLAAKGDVNSHNRRLAQFFIMRAVHDKLPEKFSGKSHHFLAYDCAATLYVPEGVYTGDAEEQVTLKIDDFPKDEWKIVSKLSRRKDDSYLVTLKPAGFVHTQGEHARAEANRMELTRCVEIITSQMLNNEDYYQFANCPNREAVAVDEVVTAEASPEIHVEVTVAAVLIQEIIVEVTATEVERYRDESRGCRDMNDSRRDSSNGVDYSPSDAAEVEKALGERGSTKRFIEDALKGLDVECTRLKGNLIRVCSIAENNAENTSFMMKGDKGEQEITVVQYFQLQYNIKLKHSRLPLVVSKRFKHESFFPMELLQIAPGQRIKVNKMSPTVQSSMTGMNASMPEQHVKLVQNILIDNLKLKQSKYMDAFGIRLMSTKPLQLPAKLLPPAQIKFKNQTYMPEMSRPAFRTQDKFVQPAHIGRIGVVVFDNCIQMRQAESFCDNLAAICRDNGIKIDQDSRDWTICEINSSDAAGIQNRMRKWADDKVDILFAITREKKPDVHDILKYYEESIGLQTIQVCQQTVDKMMGGGGGRQTIDNVMRKFNLKCGGTNFFDEIPSSVRGRAVCSNSETLSKKLFEHVQFIGFEISHGAARTLFDRSRSQLDGEPSVVGVSYSLTNSTQLGGFTYLQTQKEYKLQKLGEVFPKCVQSYKEHSRRLPTRIVIYRVGAGEGDFKRVKEEIEEIRGTFDKIQPGYRPHLVVVIAQIASHARVFPSNITGRKAMEQNVPSGTCVDNVPTSYGYDEFILSSRTPLIGTVRPCKYTILINDANWSKNEIMHLTYFRAFGHQVSYKPPSVPDVLYAAENLAKRGRNNYKIHQRHVNLQAVENSIIGDHSELINEDMREELAAAIVDHMSVAMNGMTISKRNFWA", "soluble on expression in E. coli": "not soluble"}
{"sequence": "MALRSVCRWHNGEPAVLSSYGLRVRLSRMEDQCRVLAAAVETLDDVFYVYDADGKLAYWNARLNELFGLTDGELSGMDPTEFFVADDRAAVEAAIEDVFESGQTSVEARAETTEGVVTFELSGRLLTGDDGTVQGFSGVGRDIT", "soluble on expression in E. coli": "not soluble"}
{"sequence": "MTERFFAPCPRGLETVLAAELERLDATSIQASPGGVGFHGNWQTCYRANLESRIASRILWQIAKDQYRSEADIYDLTHSLPWQDWFEPRLSIKVNLAAIKCPLRSLDFVTLRIKDAVCDKFRAIHGKRPDIDTVAPDMRIHGFLNAQEFTLYLDTSGEALFKRGLRQTQGEAPLRENLAAGILALTGWQPGTPLLDPMCGSGTLLLEAAQIACRIAPGSGRQFAFEQLKLFDARSWKKLKQTATERQHERTFQSIYGSDLYGSALAHTRNNLAAAGLAECVTLKQANVLEISAPAETGILVSNPPYGVRIGDHQMLAEFYPRLGDVLKQRFSGWRAFLLTADPLLAKSIRLTPSRRTPLFNGALECRLLEYRLVAGSMRREKQPSSESSTNQPIT", "soluble on expression in E. coli": "not soluble"}
{"sequence": "GMSNEHQLLVGLLKKLKDDALILPTLPEVAMRVQEVVGRPDSSLKQVAEIIGQDAAISARIIKVANSALYSRGVPAENINSAVTRIGLTQIKSIATSVAMEQLFISTNEMVWEVMDEVWRTSIDVTAAACSLLQIYNKKHPGSGLNYDTLTLAGLVHNIGALPVLTEAEAHPEMFTTIEHLRSLVRKMQGPIGRAVLKSWDFAPEVMEVVERWADLPYLGDHVSYLDFIRAAAFYTGELRAGNELEQRLDVFVKRGLPVSPEDLGSDAFLDSYHSIKASYE", "soluble on expression in E. coli": "soluble"}
{"sequence": "MSSWAKVIYGASTELDAKVVELNVGGQFYTTTMGTLMKHPGSKFSEILSRSARHYKDAQGRFFIDRPGTYFGLLLDYLRTGQVPTEYVPEVYQEAKFYQIHLLVKILEDMPQIFGEQVARTQFLMGVPNYRENLEVLLHLARAEAVAMRSSKVVVCVVRTEEEDAKCVKPLHILEAKKTPVVKFGPWKAGPMTEDFVCCLEKDIRAKGYKVTSQRYYLSRDPYTCFWIFVFTWW", "soluble on expression in E. coli": "not soluble"}
{"sequence": "MAHHHHHHMSATPSNVLLGLFDGYMSHKRDQLTSETKLGGTPTYFPPLSDADKAQIRRWTSCGVCGHAMSLLTQAYSPLPTAPASRPHHRMVYVFGCNSGYCSRQPTSSMVAFSVQVDQEDEQALAENAEEEDEDEVIETGPLLPSELPEAVLPPCYVYIDAEPSKEAVVPTDIERELIKMAEENARSTVTDEELQQLEQTVDLKDTKTDYYYEKFRSRVARAPNQVLRYYERTVAAAAATSASLRAKDVKPIFMNPDKVKAMVTIPACACCGSTQTAELQVMPTSLYYLHVSEYTALARADAAAMAAPAGTLAAASTHSNVVDTQSPVASPSASTTTCKASALSGAATGTEKAIPANVDDGCDFGTITVYVCAKDCAARQHGVVLRRETLCVEEAPTMRDEERAGKADAAKAGTDGATHKVTLRELLHGNGEGGEDMEDDDEGHIDDEAVSTA", "soluble on expression in E. coli": "soluble"}
